Experiment [1] addresses T1, PD-L1 on PD-L1 expressing cells (IFNg-stimulated THP-1 cells; MDA-MB-231 cells) (UniProt Q9NZQ7 19-290, limits assumed).
T1 construct: whole, on cells
Briefly: FACS, MDA-MB-231 cells, 0.625 µg/ml; negative control (buffer) 69. Here is the method:
Cells incubated with buffer alone were used as negative controls. The cells were incubated for 1 h at 8° C. in the dark, washed twice with 100 μl staining buffer, and resuspended in 100 μl of staining buffer containing 2.5 μg/ml of a goat-anti-human IgG-Alexa488 (Molecular Probes, cat. no. A11013) or, for cells stained with the positive control antibody, goat anti-mouse IgG-Alexa647 antibody (Life Technologies, cat. No. A21236). The cells were incubated for 1 h at 8° C. in the dark, washed twice with 100 μl staining buffer and resuspended in 300 μl of staining buffer. Data from 10,000 cells were obtained using a FACS Calibur ([…]) and the data was analyzed using Flowing software 2.5.0 (Turku University). Mean fluorescence intensity (MFI) was used as a read out of binding capacity.
A general note: Flow cytometry measures light scatter and fluorescence of single cells or particles in a stream.

Experiment [2] deals with T2, human PD-L1 Fc Chimera (R&D Systems, cat. no. 156-B7-100) (human, UniProt Q9NZQ7 19-239, biotinylated with Sulfo-NHS-LC-Biotin in ELISA and AlphaLISA; not biotinylated in SPR).
T2 construct: bought; also called hPD-L1; biotinylated hPD-L1; not shown: Fc part of the bought Fc chimera, not described
Briefly: SPR capture assay, control.

T1 sequence (Q9NZQ7 19-290 limits assumed): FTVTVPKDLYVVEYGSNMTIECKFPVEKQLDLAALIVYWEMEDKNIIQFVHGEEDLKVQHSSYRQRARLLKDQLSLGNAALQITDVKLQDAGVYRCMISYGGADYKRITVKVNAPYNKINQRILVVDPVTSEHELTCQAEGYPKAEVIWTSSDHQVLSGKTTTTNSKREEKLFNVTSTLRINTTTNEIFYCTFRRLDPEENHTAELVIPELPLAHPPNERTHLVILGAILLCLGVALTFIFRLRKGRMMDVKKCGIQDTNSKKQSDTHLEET
T2 sequence (Q9NZQ7 19-239, change not shown): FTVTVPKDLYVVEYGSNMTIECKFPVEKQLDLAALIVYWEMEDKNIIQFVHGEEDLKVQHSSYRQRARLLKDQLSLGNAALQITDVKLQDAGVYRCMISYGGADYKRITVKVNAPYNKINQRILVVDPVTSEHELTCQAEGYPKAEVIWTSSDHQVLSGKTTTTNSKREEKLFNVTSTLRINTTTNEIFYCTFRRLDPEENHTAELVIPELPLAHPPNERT

B1: ipilimumab (Yervoy, Bristol-Myers Squibb) (antibody, V domains shown)
VH: QVQLVESGGGVVQPGRSLRLSCAASGFTFSSYTMHWVRQAPGKGLEWVTFISYDGNNKYYADSVKGRFTISRDNSKNTLYLQMNSLRAEDTAIYYCARTGWLGPFDYWGQGTLVTVSS
VL: not shown
B1 yielded an MFI in experiment [1] of 64.

B2: Z15170-HCLam (bispecific antibody)
heavy: not shown
light: EIVLTQSPATLSLSPGERATLSCRASKGVSTSGYSYLHWYQQKPGQAPRLLIYLASYLESGVPARFSGSGSGTDFTLTISSLEPEDFAVYYCQHSRDLPLTFGGGTKVEIKRTVAAPSVFIFPPSDEQLKSGTASVVCLLNNFYPREAKVQWKVDNALQSGNSQESVTEQDSKDSTYSLSSTLTLSKADYEKHKVYACEVTHQGLSSPVTKSFNRGEC
For B2, the MFI in experiment [1] was found to be 161.

B3: HCLam-Z15170 (bispecific antibody)
heavy: not shown
light: B2 light
As for B3, the MFI in experiment [1] stood at 274.

B4: Lam (PD-1 binding monoclonal antibody with the CDR sequences of pembrolizumab) (antibody, human IgG4 S228P, kappa, V domains shown)
VH: QVQLVQSGVEVKKPGASVKVSCKASGYTFTNYYMYWVRQAPGQGLEWMGGINPSNGGTNFNEKFKNRVTLTTDSSTTTAYMELKSLQFDDTAVYYCARRDYRFDMGFDYWGQGTTVTVSS
VL: EIVLTQSPATLSLSPGERATLSCRASKGVSTSGYSYLHWYQQKPGQAPRLLIYLASYLESGVPARFSGSGSGTDFTLTISSLEPEDFAVYYCQHSRDLPLTFGGGTKVEIKR
Regarding B4, the binding result in experiment [2] is “no binding (tested: 100 or 500 nM PD-L1)”.

Values taken from US20180312565A1 (Affibody, published 2018).
